From patent publication US20060234291A1 (MODPRO, published 2006)
Non-standard residues stand in square brackets, D forms with d. Nle = CCCC[C@H](N)C(=O)O; Orn = NCCC[C@H](N)C(=O)O

Experiments:
[1] = target: the molecule itself; assay: 1H NMR NOESY and CD spectroscopy, self-association
Text: This is because NOEs only arise between nuclei separated by less than 5 Å [K. Wüthrich, NMR of proteins and nucleic acids, John Wiley & Sons, Inc., 1986] and the distances between Phe35 and Nle16, and between N15 and Lys19, are too long to give rise to NOEs within the monomer and too long to give rise to NOEs in a parallel dimer. […] The inventor concludes that KA-I forms an antiparallel dimer of helix-loop-helix hairpin motifs, and that residues in a and d positions are positioned in the hydrophobic core, whereas all other residues are solvent exposed.
CD spectra were recorded on a Jasco J-715 CD spectropolarimeter, in 0.1, 0.5, or 1 mm cuvettes in the interval from 280-190 nm at room temperature. Each spectrum is an average of six scans and the background was subtracted from the spectrum before the mean residue ellipticity at 222 nm was measured. A 1 mM stock peptide solution was prepared by dissolving the peptide in buffer, under the assumption that the lyophilized peptide contains 25% water. The pH was adjusted by addition of small amounts of 0.1 M-1 M NaOH or HCl. For the concentration dependent studies the stock peptide solution was diluted to the desired concentrations by pipetting. […] The concentration of the stock solution for the concentration dependent measurement was determined by quantitative amino acid analysis. […]

[2] = target: the molecule itself; assay: 1H NMR NOESY, self-association
Experimental: The secondary and tertiary structures of LA-42h were investigated by ¹H-NMR spectroscopy. The ¹H-NMR spectrum of LA-42h was assigned from the TOCSY and NOESY spectra recorded in H₂O:D₂O (90:10 v/v) containing 4 vol % of TFE-d₃ at 308 K using methods described in detail previously [S. Olofsson, L. Baltzer, Folding & Design 1996, 347-356]. Most of the spin systems of the amino acids were identified from the αH—NH region in the TOCSY spectrum and the sequential assignments of residues 5 to 19 and 23 to 41were obtained from the NH—NH region in the NOESY spectrum. Due to the cis-trans equilibrium of Pro21, an extra set of resonances with low intensity from the amino acids near the proline in the loop region was identified. The aH chemical shifts are diagnostic of secondary structure formation, and the measured values were compared to tabulated values for random coil conformations [D. S. Wishart, B. D. Sykes, F. M. Richards, J. Mol. Biol. 1991, 222, 311-333]. From their upfield shifts relative to the random coil values, two helical segments were identified in the sequence of LA-42h from […] Nle16 and from Ala25 to Arg40. A loop region was also assigned from the downfield shifts, or absence of deviation relative to random coil conformation, of the α protons. […]

| Protein | binding result [1] | binding result [2] |
| --- | --- | --- |
| Ac-NAAD[Nle]EAAIKALAEK[Nle]AAKGPVDAAQ[Nle]AEQLAK[Orn]FEAFARAG-NH2 (also: two monomers associate antiparallel into four-helix bundle (dimer)) [KA-I] | binds |  |
| Ac-NAAD[Nle]EAKIRHLAEK[Nle]AARGPVDAAQ[Nle]AEQLAKKFEAFARAG-NH2 (also: two monomers associate antiparallel into four-helix bundle (dimer), two monomers associate antiparallel into a four-helix bundle) [LA-42h] |  | binds |
